The target in assay [1] is T1, RapF^E303A (Bacillus subtilis, UniProt P71002, E303A).
T1 construct: 6xHis (N, cleaved yes); made in house; host or cells: Escherichia coli BL21 RIL
Kind of assay: Gel shift (native PAGE) titration, apparent Kd, RapF^E303A. It counts as binding, B. subtilis. The protocol:
(§1) The formation of complexes was analyzed by native polyacrylamide gel electrophoresis (Native-PAGE), similarly to that described by Salinas et al.. Briefly, mixtures of RapF (WT and mutants), ComA (10 µM of each protein), or Phr peptides (0.5 mM), as indicated, were incubated in buffer A (200 mM NaCl, 50 mM Tris-HCl [pH 8.0]) at room temperature for 30 min, separated by Native-PAGE and visualized by Coomassie blue staining. The peptide binding constants for RapF, RapF^D194A, RapF^N227A, RapF^E303K, and RapF^E303A were calculated following the same approach. Reaction mixtures containing 20 µg of protein and peptide concentrations ranging from 50 nM to 1.2 mM in 20 µl of buffer A were incubated for 15 min at room temperature. Reactions were separated in 8% acrylamide native gel (100 V, 4°C, 2 h) and visualized by Coomassie blue staining. Free protein was quantified using the Multigauge V2.1 software (Fujifilm) and the fraction of bound protein was estimated by subtracting free protein from the input protein. Data were plotted as a fraction of the Phr bound protein versus the Phr concentration, and were analyzed by the Graphpad prism software. The midpoint of the transition was taken as the apparent Kd. To calculate the Kd values, at least three independent experiments were analyzed.

For assay [2], the target named is T2, RapF (Bacillus subtilis, UniProt P71002).
T2 construct: 6xHis (N, cleaved yes); made in house; host or cells: Escherichia coli BL21 RIL
It counts as binding, B. subtilis. The settings on record: wild-type RapF, at 12 µM PhrF; native PAGE titration. The protocol: as §1

For assay [3], the target named is T3, RapF^N227A (Bacillus subtilis, UniProt P71002, N227A).
T3 construct: 6xHis (N, cleaved yes); made in house; host or cells: Escherichia coli BL21 RIL
Kind of assay: Gel shift (native PAGE) titration, apparent Kd, RapF^N227A. It counts as binding, B. subtilis. The method, then:
as §1

Assay [4] concerns the target T4, RapF^D194A (Bacillus subtilis, UniProt P71002, D194A).
T4 construct: 6xHis (N, cleaved yes); made in house; host or cells: Escherichia coli BL21 RIL
In words: Gel shift (native PAGE) titration, apparent Kd, RapF^D194A. It counts as binding, B. subtilis. The protocol:
as §1

Assay [5] has as its target T5, RapF (B. subtilis, UniProt P71002 1-381).
T5 construct: RapF of Bacillus subtilis, amplified from genomic DNA and cloned in pPROEX-HTa; The text speaks of residues up to Val381, which fits the whole protein; also called wild-type RapF; native RapF; source: E. coli BL21 RIL, purified (HisTrap, TEV digestion, Superdex 200); not shown: His6, N-terminal, cleaved
T5 sequence: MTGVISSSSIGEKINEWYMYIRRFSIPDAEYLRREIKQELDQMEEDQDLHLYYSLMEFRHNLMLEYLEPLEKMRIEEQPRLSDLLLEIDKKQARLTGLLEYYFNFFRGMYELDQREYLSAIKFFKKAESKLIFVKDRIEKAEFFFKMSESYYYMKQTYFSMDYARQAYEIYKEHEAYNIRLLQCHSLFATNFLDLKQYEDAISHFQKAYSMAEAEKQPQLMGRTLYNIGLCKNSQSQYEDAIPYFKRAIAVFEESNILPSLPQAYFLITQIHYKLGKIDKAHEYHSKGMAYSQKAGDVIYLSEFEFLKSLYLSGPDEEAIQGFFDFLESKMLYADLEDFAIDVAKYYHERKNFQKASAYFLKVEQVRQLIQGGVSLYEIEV
In words: native gel or EMSA; Native-PAGE, Coomassie stained; RapF (WT or mutant) and ComA 10 µM each, Phr peptides 0.5 mM; buffer A (200 mM NaCl, 50 mM Tris-HCl pH 8.0), room temperature, 30 min. Particulars: both partners purified.

For assay [6], the target named is T6, RapF^D194A (B. subtilis, UniProt P71002 1-381, D194A).
T6 construct: RapF of Bacillus subtilis with Asp194 changed to Ala, made from pPROEX-RapF by site-directed mutagenesis; Same construct as m1 with the point mutation; also called RapF Asp194Ala; source: E. coli BL21 RIL, purified as native RapF; not shown: His6, N-terminal, cleaved
T6 sequence: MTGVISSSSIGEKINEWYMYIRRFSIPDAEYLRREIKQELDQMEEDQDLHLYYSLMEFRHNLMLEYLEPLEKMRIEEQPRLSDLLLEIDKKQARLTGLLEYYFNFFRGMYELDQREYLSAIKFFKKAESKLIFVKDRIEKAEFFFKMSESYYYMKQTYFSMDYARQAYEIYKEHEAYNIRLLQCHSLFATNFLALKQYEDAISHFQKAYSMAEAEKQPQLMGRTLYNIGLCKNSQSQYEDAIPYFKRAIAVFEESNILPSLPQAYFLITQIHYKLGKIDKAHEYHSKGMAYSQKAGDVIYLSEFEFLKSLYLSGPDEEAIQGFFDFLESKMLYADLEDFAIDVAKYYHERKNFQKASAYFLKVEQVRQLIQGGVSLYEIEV
Described as above. Particulars: both partners purified.

A further assay deals with T7, RapF^E303K (B. subtilis, UniProt P71002 1-381, E303K).
T7 construct: RapF of Bacillus subtilis with Glu303 changed to Lys, made from pPROEX-RapF by site-directed mutagenesis; Same construct as m1 with the point mutation; also called RapF Glu303Lys; source: E. coli BL21 RIL, purified as native RapF; not shown: His6, N-terminal, cleaved
T7 sequence: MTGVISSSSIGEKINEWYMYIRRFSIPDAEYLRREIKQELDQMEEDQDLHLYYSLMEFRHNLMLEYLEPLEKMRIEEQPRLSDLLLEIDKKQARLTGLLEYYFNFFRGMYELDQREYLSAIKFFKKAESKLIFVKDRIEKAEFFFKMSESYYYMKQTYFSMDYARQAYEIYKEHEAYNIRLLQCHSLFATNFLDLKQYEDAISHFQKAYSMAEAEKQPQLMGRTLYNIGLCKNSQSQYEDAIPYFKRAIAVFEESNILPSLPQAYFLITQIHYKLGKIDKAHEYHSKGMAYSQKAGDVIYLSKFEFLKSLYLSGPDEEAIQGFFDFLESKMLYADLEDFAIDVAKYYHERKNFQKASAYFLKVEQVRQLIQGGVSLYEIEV
The assay is described as above. Particulars: both partners purified.

For assay [7], the target named is T8, RapF^E303A (B. subtilis, UniProt P71002 1-381, E303A).
T8 construct: RapF of Bacillus subtilis with Glu303 changed to Ala, made from pPROEX-RapF by site-directed mutagenesis; Same construct as m1 with the point mutation; also called RapF Glu303Ala; source: E. coli BL21 RIL, purified as native RapF; not shown: His6, N-terminal, cleaved
T8 sequence: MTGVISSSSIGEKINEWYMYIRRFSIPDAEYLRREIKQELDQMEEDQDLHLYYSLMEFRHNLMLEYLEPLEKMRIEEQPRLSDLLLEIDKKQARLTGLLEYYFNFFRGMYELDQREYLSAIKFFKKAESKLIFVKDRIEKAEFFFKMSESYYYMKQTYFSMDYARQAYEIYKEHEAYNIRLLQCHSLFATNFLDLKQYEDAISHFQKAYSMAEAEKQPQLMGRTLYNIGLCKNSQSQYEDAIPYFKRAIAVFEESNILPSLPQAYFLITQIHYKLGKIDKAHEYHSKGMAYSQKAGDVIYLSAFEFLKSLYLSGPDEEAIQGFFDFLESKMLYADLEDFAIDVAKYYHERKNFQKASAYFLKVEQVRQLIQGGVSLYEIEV
The description is as above. The settings on record: both partners purified.

In assay [8] the target is T9, RapF^N227A (B. subtilis, UniProt P71002 1-381, N227A).
T9 construct: RapF of Bacillus subtilis with Asn227 changed to Ala, made from pPROEX-RapF by site-directed mutagenesis; Same construct as m1 with the point mutation; also called RapF Asn227 to Ala mutant; RapF^N277A (misprint in the text); source: E. coli BL21 RIL, purified as native RapF; not shown: His6, N-terminal, cleaved
T9 sequence: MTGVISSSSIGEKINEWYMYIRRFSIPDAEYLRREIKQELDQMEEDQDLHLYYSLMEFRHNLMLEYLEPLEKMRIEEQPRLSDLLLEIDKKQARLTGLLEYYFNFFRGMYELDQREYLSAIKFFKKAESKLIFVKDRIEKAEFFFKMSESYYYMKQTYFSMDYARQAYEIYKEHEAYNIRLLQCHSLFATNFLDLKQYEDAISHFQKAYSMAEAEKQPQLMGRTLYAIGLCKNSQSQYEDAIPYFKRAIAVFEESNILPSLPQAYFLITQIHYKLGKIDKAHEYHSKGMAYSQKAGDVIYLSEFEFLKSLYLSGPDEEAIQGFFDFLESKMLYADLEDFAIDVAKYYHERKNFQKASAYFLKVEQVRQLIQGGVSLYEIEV
The assay is described as above. Particulars: both partners purified.

No end group written: not given here. Some results are limits rather than exact numbers.

In the case of ERGMT [PhrC], the Kd on RapF^E303A [1] is over 1200 µM.

For QRGMI [PhrF], on RapF [2], the “RapF present in the free form” value is reported as “less than 30%”. For the same molecule, the Kd at RapF^N227A [3] and at RapF^D194A [4] was over 1200 µM each time.

B1: ComA (natural protein, B. subtilis, UniProt P14204 1-214, looked up)
chain: MKKILVIDDHPAVMEGTKTILETDSNLSVDCLSPEPSEQFIKQHDFSSYDLILMDLNLGGEVNGMELSKQILQENPHCKIIVYTGYEVEDYFEEAIRAGLHGAISKTESKEKITQYIYHVLNGEILVDFAYFKQLMTQQKTKPAPSSQKEQDVLTPRECLILQEVEKGFTNQEIADALHLSKRSIEYSLTSIFNKLNVGSRTEAVLIAKSDGVL
notes: also called RR ComA; full-length ComA; source: E. coli BL21 RIL, purified (HisTrap, TEV digestion, Superdex 200); not shown: His6, N-terminal, cleaved
With B1, the binding result with RapF [5], with RapF^D194A [6], with RapF^E303K, in the assay with RapF^E303A [7] and with RapF^N227A [8] was “binds” each time.

The values are drawn from PMC3601957, “Structural Basis of Rap Phosphatase Inhibition by Phr Peptides” (PLoS Biology, 2013).
